Patent US20120322150

Legend:
[1] = biological target: GST-hsGSK3β (UniProt P49841)
[2] = biological target: T1, GST-BIN2 (UniProt Q39011)
T1 sequence: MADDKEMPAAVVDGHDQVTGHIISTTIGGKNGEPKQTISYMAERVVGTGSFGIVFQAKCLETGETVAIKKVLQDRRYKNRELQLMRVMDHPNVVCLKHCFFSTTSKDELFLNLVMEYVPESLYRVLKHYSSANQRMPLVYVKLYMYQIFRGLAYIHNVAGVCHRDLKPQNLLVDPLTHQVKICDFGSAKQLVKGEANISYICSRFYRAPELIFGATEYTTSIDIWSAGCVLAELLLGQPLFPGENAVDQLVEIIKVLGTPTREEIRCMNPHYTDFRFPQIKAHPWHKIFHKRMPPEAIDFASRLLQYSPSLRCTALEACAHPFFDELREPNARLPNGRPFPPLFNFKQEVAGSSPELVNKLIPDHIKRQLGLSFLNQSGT

Sequence of GST-hsGSK3β (P49841 whole entry, looked up): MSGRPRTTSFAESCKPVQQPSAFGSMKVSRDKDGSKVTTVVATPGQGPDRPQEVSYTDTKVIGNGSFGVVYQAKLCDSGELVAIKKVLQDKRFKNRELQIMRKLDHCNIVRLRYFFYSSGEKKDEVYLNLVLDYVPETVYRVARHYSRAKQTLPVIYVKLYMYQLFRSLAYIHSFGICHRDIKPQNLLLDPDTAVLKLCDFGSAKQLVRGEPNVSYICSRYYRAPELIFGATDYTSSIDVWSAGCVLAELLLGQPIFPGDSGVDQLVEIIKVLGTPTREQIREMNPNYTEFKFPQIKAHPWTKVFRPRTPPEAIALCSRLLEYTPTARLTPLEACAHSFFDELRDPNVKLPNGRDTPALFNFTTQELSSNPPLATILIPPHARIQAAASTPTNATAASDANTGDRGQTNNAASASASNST

Substance | phosphorylation status of tyrosine 216 of hsGSK3β (immunoblot with anti-phospho-tyrosine 216 antibody) [1] | dephosphorylation of BIN2 tyrosine200 [2]
MBP-hsPPP1cc | human protein phosphatase 1 gamma (PP1γ) dephosphorylates tyrosine 216 of human GSK3 beta in vitro | 
PP1 purified from E. coli |  | The presence of PP1 increased dephosphorylation of BIN2 tyrosine200
